Measurements published in paper PMC9688318, “Construction of a Versatile, Programmable RNA-Binding Protein Using Designer PPR Proteins and Its Application for Splicing Control in Mammalian Cells”.

Experiments:
[1] = target: T1, PPR2.0 t8 (synthetic); experiment: EMSA; 20 mM Tris-HCl pH 8.0, 150 mM NaCl, 0.5% NP-40, 1 mM DTT, 1 mM EDTA; 20 nM RNA; details: tags: N-terminal SBP, C-terminal His6, kept; label: biotin
T1 chain: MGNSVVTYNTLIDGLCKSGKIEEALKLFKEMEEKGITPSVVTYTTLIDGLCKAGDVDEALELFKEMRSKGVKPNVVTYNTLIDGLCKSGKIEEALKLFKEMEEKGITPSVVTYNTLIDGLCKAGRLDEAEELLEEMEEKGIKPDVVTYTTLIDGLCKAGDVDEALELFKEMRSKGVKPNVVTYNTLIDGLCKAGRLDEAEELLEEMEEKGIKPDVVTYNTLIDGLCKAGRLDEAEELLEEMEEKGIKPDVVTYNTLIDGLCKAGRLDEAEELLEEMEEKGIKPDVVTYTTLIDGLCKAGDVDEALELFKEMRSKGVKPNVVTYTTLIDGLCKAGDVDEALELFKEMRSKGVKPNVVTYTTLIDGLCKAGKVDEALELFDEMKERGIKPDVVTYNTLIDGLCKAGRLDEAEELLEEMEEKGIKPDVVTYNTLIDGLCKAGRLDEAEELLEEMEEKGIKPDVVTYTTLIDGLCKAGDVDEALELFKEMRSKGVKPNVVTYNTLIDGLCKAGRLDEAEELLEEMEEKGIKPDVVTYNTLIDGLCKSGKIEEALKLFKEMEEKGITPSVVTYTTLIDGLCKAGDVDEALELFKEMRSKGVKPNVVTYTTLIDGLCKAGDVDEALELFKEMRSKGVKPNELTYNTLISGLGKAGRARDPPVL

[2] = target: T1, PPR2.0 t8; experiment: 20 mM Tris-HCl pH 8.0, 150 mM NaCl, 0.5% NP-40, 1 mM DTT; details: tags: N-terminal NanoLuc, C-terminal His6, kept; label: biotin
[3] = target: T2, PPR2.0 t11 (synthetic); experiment: EMSA; 20 mM Tris-HCl pH 8.0, 150 mM NaCl, 0.5% NP-40, 1 mM DTT, 1 mM EDTA; 20 nM RNA; details: tags: N-terminal SBP, C-terminal His6, kept; label: biotin
T2 chain: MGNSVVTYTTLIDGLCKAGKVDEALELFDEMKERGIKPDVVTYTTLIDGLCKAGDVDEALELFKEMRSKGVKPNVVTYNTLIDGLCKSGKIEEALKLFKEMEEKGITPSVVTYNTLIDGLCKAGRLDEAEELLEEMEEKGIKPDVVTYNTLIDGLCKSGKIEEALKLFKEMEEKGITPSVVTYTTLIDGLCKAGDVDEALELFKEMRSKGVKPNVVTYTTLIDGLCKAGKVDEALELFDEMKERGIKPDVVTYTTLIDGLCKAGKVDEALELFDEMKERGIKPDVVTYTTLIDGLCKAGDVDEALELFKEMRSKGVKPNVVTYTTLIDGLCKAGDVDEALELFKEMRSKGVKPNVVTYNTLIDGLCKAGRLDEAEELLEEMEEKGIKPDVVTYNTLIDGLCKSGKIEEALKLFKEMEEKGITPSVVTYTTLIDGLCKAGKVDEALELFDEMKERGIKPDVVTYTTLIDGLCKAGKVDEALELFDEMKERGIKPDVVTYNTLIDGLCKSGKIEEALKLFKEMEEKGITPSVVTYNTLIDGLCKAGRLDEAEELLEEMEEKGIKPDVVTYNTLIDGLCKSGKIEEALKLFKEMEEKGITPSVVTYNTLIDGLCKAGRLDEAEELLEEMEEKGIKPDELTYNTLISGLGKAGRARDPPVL

[4] = target: T2, PPR2.0 t11; experiment: 20 mM Tris-HCl pH 8.0, 150 mM NaCl, 0.5% NP-40, 1 mM DTT; details: tags: N-terminal NanoLuc, C-terminal His6, kept; label: biotin
[5] = target: T3, PPR2.0 t14 (synthetic); experiment: EMSA; 20 mM Tris-HCl pH 8.0, 150 mM NaCl, 0.5% NP-40, 1 mM DTT, 1 mM EDTA; 20 nM RNA; details: tags: N-terminal SBP, C-terminal His6, kept; label: biotin
T3 chain: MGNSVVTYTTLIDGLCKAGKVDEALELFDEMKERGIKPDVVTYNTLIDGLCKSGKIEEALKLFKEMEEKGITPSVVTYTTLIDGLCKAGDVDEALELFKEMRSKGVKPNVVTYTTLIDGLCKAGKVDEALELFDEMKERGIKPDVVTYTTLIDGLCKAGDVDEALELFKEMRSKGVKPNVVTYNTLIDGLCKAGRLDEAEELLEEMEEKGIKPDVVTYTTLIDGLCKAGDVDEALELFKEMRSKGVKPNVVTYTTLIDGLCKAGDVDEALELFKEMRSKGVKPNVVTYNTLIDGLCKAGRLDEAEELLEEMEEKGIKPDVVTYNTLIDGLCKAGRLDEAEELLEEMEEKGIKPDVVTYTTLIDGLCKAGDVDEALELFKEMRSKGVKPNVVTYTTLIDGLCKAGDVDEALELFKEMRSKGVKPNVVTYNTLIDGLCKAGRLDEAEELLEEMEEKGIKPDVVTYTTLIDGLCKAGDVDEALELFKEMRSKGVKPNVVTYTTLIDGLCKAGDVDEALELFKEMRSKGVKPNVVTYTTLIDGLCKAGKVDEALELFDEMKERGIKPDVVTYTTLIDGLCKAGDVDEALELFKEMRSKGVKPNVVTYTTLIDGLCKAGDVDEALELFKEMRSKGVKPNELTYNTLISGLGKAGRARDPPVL

[6] = target: T3, PPR2.0 t14; experiment: 20 mM Tris-HCl pH 8.0, 150 mM NaCl, 0.5% NP-40, 1 mM DTT; details: tags: N-terminal NanoLuc, C-terminal His6, kept; label: biotin
[7] = target: T4, PPR2.0 t15 (synthetic); experiment: EMSA; 20 mM Tris-HCl pH 8.0, 150 mM NaCl, 0.5% NP-40, 1 mM DTT, 1 mM EDTA; 20 nM RNA; details: tags: N-terminal SBP, C-terminal His6, kept; label: biotin
T4 chain: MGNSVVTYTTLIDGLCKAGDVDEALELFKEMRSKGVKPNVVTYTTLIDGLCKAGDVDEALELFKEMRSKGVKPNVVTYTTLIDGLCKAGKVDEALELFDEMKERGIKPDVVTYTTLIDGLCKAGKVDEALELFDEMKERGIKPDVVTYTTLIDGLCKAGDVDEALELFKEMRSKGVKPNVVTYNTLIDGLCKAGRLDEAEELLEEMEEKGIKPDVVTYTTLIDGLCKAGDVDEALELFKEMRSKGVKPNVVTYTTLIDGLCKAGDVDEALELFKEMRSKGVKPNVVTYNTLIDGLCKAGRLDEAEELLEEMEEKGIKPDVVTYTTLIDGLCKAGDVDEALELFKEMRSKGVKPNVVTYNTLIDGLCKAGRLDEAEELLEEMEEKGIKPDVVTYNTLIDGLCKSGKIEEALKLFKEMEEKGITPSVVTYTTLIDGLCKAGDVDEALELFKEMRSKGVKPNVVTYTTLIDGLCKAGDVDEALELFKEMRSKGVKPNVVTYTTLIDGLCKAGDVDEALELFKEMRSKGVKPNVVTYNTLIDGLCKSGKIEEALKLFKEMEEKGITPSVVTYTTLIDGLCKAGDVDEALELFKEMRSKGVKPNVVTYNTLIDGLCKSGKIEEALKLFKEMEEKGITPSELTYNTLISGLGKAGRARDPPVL

[8] = target: T4, PPR2.0 t15; experiment: 20 mM Tris-HCl pH 8.0, 150 mM NaCl, 0.5% NP-40, 1 mM DTT; details: tags: N-terminal NanoLuc, C-terminal His6, kept; label: biotin
[9] = target: T5, PPR2.0 t4 (synthetic); experiment: EMSA; 20 mM Tris-HCl pH 8.0, 150 mM NaCl, 0.5% NP-40, 1 mM DTT, 1 mM EDTA; 20 nM RNA; details: tags: N-terminal SBP, C-terminal His6, kept; label: biotin
T5 chain: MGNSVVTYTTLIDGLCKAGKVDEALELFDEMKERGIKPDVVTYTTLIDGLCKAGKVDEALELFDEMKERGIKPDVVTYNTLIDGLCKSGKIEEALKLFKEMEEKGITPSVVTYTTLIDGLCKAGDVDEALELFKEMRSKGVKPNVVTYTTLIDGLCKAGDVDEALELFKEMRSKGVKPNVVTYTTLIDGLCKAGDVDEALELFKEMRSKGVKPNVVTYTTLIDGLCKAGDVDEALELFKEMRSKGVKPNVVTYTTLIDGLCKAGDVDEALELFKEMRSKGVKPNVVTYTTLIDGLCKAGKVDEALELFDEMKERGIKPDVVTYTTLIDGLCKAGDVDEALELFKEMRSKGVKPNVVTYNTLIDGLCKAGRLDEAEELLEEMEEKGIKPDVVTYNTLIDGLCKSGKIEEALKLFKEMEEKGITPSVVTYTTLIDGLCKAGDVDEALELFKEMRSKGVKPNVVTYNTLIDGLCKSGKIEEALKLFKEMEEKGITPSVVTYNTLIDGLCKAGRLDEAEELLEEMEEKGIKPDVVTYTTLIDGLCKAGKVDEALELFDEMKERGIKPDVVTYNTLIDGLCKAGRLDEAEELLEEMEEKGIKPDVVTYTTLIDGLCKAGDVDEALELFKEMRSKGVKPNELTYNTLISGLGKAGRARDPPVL

[10] = target: T5, PPR2.0 t4; experiment: 20 mM Tris-HCl pH 8.0, 150 mM NaCl, 0.5% NP-40, 1 mM DTT; details: tags: N-terminal NanoLuc, C-terminal His6, kept; label: biotin
[11] = target: T6, PPR2.0 t5 (synthetic); experiment: EMSA; 20 mM Tris-HCl pH 8.0, 150 mM NaCl, 0.5% NP-40, 1 mM DTT, 1 mM EDTA; 20 nM RNA; details: tags: N-terminal SBP, C-terminal His6, kept; label: biotin
T6 chain: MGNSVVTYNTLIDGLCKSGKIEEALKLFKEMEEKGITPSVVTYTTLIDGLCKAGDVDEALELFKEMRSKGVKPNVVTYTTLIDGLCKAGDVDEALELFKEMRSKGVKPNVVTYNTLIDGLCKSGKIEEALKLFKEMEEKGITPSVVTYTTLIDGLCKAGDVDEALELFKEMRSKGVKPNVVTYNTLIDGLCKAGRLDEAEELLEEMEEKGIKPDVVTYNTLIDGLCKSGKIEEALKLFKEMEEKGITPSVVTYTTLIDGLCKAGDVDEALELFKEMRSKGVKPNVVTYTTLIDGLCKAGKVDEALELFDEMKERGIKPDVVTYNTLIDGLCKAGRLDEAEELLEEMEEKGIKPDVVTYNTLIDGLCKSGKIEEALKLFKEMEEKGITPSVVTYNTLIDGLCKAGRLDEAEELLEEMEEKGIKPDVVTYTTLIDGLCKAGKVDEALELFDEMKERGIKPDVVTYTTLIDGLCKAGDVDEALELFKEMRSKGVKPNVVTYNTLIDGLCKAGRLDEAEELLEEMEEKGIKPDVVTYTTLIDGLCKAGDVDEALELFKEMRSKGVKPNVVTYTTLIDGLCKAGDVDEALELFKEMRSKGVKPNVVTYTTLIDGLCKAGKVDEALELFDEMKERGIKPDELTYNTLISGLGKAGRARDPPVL

[12] = target: T6, PPR2.0 t5; experiment: 20 mM Tris-HCl pH 8.0, 150 mM NaCl, 0.5% NP-40, 1 mM DTT; details: tags: N-terminal NanoLuc, C-terminal His6, kept; label: biotin

Binder: GACAUGCCACUAUUUAAGUUAUCAAGACUG (ssRNA) [Probe_t8]
- Kd [1]: 1.95 nM
- binding signal [2]: 4.7e+07 RBP-ELISA luminescence, CPS

Binder: GACAUGCGACUCAGGAAUCGGCUCUGACUG (ssRNA) [Probe_t11]
- Kd [3]: 63.3 nM
- binding signal [4]: 3.78e+07 RBP-ELISA luminescence, CPS

Binder: GACAUGCGCAGAUAAUUAAUAAGAAGACUG (ssRNA) [Probe_t14]
- Kd [5]: 197 nM
- binding signal [6]: 1.33e+07 RBP-ELISA luminescence, CPS

Binder: GACAUGCAAGGAUAAUAUCAAACACGACUG (ssRNA) [Probe_t15]
- Kd [7]: 41 nM
- binding signal [8]: 2.84e+07 RBP-ELISA luminescence, CPS

Binder: GACAUGCGGCAAAAAGAUCACUGUAGACUG (ssRNA) [Probe_t4]
- Kd [9]: 2.57 nM
- binding signal [10]: 5.98e+07 RBP-ELISA luminescence, CPS

Binder: GACAUGCCAACAUCAGUCUGAUAAGGACUG (ssRNA) [Probe_t5]
- Kd [11]: 167 nM
- binding signal [12]: 1.67e+07 RBP-ELISA luminescence, CPS
